Assay results as given in patent US20140087995A1 (published 2014).
Numbered stars: 1 amine (or outer) side, 2 acyl side, 3 side chain; on linkers, the order of the positions; unused ones are H or OH. Bridge positions count the residues as written; N and C are the ends. Side chains are listed from the residue outwards. Ends that are not written are not given here. * marks the point of attachment. C20 diacid = O=C(O)CCCCCCCCCCCCCCCCCCC(=O)*; γGlu = O=C(O)[C@H](CCC(=O)[*:2])N[*:1]

T1: rat calcitonin receptor (rat, UniProt P32214 25-516)
T1 construct: whole, on cells; Used as membranes prepared from the transfected cells; also called rCTR; rat calcitonin (a) receptor
T1 sequence (looked up): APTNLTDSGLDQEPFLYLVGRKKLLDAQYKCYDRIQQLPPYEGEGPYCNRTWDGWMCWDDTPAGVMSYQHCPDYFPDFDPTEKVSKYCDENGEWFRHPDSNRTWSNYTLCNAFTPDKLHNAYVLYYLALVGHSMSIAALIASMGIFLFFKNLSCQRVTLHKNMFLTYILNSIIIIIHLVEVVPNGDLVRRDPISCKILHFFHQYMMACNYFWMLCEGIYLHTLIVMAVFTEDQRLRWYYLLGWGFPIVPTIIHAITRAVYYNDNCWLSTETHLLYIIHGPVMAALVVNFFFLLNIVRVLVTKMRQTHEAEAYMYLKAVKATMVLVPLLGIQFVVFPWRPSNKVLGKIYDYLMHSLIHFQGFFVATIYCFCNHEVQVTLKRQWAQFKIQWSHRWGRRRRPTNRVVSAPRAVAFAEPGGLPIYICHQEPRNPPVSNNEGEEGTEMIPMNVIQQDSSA

T2: human calcitonin receptor (human, UniProt P30988 25-474)
T2 construct: whole, on cells; Used as membranes prepared from the transfected cells (Assay VII); also called hCTR; hCT
T2 sequence (looked up): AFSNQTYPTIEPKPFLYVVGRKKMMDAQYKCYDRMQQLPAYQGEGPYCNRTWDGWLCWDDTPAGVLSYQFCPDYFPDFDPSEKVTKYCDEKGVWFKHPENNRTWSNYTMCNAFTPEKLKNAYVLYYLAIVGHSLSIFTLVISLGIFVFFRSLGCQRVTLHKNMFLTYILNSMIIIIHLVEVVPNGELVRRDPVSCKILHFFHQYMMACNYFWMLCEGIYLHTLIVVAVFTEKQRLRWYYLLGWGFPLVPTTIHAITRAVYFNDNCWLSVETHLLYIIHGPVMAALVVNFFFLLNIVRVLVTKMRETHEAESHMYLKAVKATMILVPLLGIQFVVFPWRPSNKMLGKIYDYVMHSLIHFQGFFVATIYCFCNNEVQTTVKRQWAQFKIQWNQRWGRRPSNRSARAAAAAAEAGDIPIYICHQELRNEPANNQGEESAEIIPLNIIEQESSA

T3: rat amylin receptor (rat calcitonin receptor + rat RAMP 3) (rat, UniProt P32214 25-516; Q9JJ73 23-147)
T3 construct: whole, on cells; Used as membranes prepared from the transfected cells; also called rAmylin-R; rat amylin 3(a) receptor
T3 sequence (looked up) 1: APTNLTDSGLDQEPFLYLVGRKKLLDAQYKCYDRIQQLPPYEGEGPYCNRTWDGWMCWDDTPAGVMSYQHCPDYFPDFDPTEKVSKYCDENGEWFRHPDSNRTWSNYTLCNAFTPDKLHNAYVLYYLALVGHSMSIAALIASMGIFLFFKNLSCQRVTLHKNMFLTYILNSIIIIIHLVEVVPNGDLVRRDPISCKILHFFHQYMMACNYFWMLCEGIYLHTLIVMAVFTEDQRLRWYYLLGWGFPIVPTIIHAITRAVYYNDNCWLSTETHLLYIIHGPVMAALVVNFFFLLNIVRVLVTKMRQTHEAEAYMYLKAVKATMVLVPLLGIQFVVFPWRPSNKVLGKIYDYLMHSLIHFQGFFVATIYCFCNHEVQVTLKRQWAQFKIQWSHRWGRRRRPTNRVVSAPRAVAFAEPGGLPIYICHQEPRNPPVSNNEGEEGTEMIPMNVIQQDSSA
T3 sequence (looked up) 2: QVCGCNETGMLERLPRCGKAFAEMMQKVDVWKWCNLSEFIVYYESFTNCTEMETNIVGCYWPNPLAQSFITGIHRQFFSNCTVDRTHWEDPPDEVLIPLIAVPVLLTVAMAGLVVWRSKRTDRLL


How the values were obtained:
rat calcitonin receptor [1] = biological target: T1, rat calcitonin receptor; assay: SPA competition with 125I-calcitonin, membranes of BHK cells with rat calcitonin receptor (Assay VIII)
[2] = biological target: T2, human calcitonin receptor; assay: ratio IC50 human calcitonin receptor / IC50 human amylin receptor (Assays VII and V)
In short: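 Competition binding by SPA with cell membranes (35 ng/μL) and SPA beads in 50 mM Hepes pH 7.4 with 1 mM CaCl2, 5 mM MgCl2, 0.1% OA and 0.02% Tween20. Incubated 120 min at 25 °C with shaking, then counted.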

rat calcitonin receptor [3] = biological target: T1, rat calcitonin receptor; assay: ratio IC50 rat calcitonin receptor / IC50 rat amylin receptor (Assays VIII and VI)
[4] = biological target: T3, rat amylin receptor (rat calcitonin …); assay: SPA competition with 125I-rat amylin, membranes of BHK cells with rat calcitonin receptor + rat RAMP3 (Assay VI)

Binder	IC50 (rat calcitonin receptor [1])	Ratio hCT/hAmylin binding [2]	Ratio rCT/rAmylin binding (rat calcitonin receptor [3])	IC50 [4]
K([γGlu-γGlu-C20 diacid])CNTATCATQRLADFLRHSSPNFGAPLSSTNVGSDTY-NH2 (disulfide 2-7; N-terminus assumed; SMILES CC(C)C[C@H](NC(=O)[C@H](CCCNC(=N)N)NC(=O)[C@H](CCC(N)=O)NC(=O)[C@@H](NC(=O)[C@H](C)NC(=O)[C@@H]1CSSC[C@H](NC(=O)[C@@H](N)CCCCNC(=O)CC[C@H](NC(=O)CC[C@H](NC(=O)CCCCCCCCCCCCCCCCCCC(=O)O)C(=O)O)C(=O)O)C(=O)N[C@@H](CC(N)=O)C(=O)N[C@@H]([C@@H](C)O)C(=O)N[C@@H](C)C(=O)N[C@@H]([C@@H](C)O)C(=O)N1)[C@@H](C)O)C(=O)N[C@@H](C)C(=O)N[C@@H](CC(=O)O)C(=O)N[C@@H](Cc1ccccc1)C(=O)N[C@@H](CC(C)C)C(=O)N[C@@H](CCCNC(=N)N)C(=O)N[C@@H](Cc1c[nH]cn1)C(=O)N[C@@H](CO)C(=O)N[C@@H](CO)C(=O)N1CCC[C@H]1C(=O)N[C@@H](CC(N)=O)C(=O)N[C@@H](Cc1ccccc1)C(=O)NCC(=O)N[C@@H](C)C(=O)N1CCC[C@H]1C(=O)N[C@@H](CC(C)C)C(=O)N[C@@H](CO)C(=O)N[C@@H](CO)C(=O)N[C@H](C(=O)N[C@@H](CC(N)=O)C(=O)N[C@H](C(=O)NCC(=O)N[C@@H](CO)C(=O)N[C@@H](CC(=O)O)C(=O)N[C@H](C(=O)N[C@@H](Cc1ccc(O)cc1)C(N)=O)[C@@H](C)O)C(C)C)[C@@H](C)O, Derivative of human amylin; also called compound 1)	135 nM	27.6	104	1.3 nM
K([γGlu-γGlu-C20 diacid])CNTATCATQRLADFLRHSSPNFGAIPSSTNVGSDTY-NH2 (disulfide 2-7; N-terminus assumed; SMILES CC[C@H](C)[C@H](NC(=O)[C@H](C)NC(=O)CNC(=O)[C@H](Cc1ccccc1)NC(=O)[C@H](CC(N)=O)NC(=O)[C@@H]1CCCN1C(=O)[C@H](CO)NC(=O)[C@H](CO)NC(=O)[C@H](Cc1c[nH]cn1)NC(=O)[C@H](CCCNC(=N)N)NC(=O)[C@H](CC(C)C)NC(=O)[C@H](Cc1ccccc1)NC(=O)[C@H](CC(=O)O)NC(=O)[C@H](C)NC(=O)[C@H](CC(C)C)NC(=O)[C@H](CCCNC(=N)N)NC(=O)[C@H](CCC(N)=O)NC(=O)[C@@H](NC(=O)[C@H](C)NC(=O)[C@@H]1CSSC[C@H](NC(=O)[C@@H](N)CCCCNC(=O)CC[C@H](NC(=O)CC[C@H](NC(=O)CCCCCCCCCCCCCCCCCCC(=O)O)C(=O)O)C(=O)O)C(=O)N[C@@H](CC(N)=O)C(=O)N[C@@H]([C@@H](C)O)C(=O)N[C@@H](C)C(=O)N[C@@H]([C@@H](C)O)C(=O)N1)[C@@H](C)O)C(=O)N1CCC[C@H]1C(=O)N[C@@H](CO)C(=O)N[C@@H](CO)C(=O)N[C@H](C(=O)N[C@@H](CC(N)=O)C(=O)N[C@H](C(=O)NCC(=O)N[C@@H](CO)C(=O)N[C@@H](CC(=O)O)C(=O)N[C@H](C(=O)N[C@@H](Cc1ccc(O)cc1)C(N)=O)[C@@H](C)O)C(C)C)[C@@H](C)O, Derivative of human amylin; also called compound 2)	108 nM	47.5	366	0.295 nM

The remaining binders from weak to strong by IC50 (rat calcitonin receptor [1]), led by results:

IC50 (rat calcitonin receptor [1])	Ratio hCT/hAmylin binding [2]	Ratio rCT/rAmylin binding (rat calcitonin receptor [3])	IC50 [4]	Binder
61.7 nM	50.3	65.1	0.948 nM	K([γGlu-C20 diacid])CNTATCATQRLANFLRHSSPNFGAIPSSTNVGSKTY-NH2 (disulfide 2-7; N-terminus assumed; SMILES CC[C@H](C)[C@H](NC(=O)[C@H](C)NC(=O)CNC(=O)[C@H](Cc1ccccc1)NC(=O)[C@H](CC(N)=O)NC(=O)[C@@H]1CCCN1C(=O)[C@H](CO)NC(=O)[C@H](CO)NC(=O)[C@H](Cc1c[nH]cn1)NC(=O)[C@H](CCCNC(=N)N)NC(=O)[C@H](CC(C)C)NC(=O)[C@H](Cc1ccccc1)NC(=O)[C@H](CC(N)=O)NC(=O)[C@H](C)NC(=O)[C@H](CC(C)C)NC(=O)[C@H](CCCNC(=N)N)NC(=O)[C@H](CCC(N)=O)NC(=O)[C@@H](NC(=O)[C@H](C)NC(=O)[C@@H]1CSSC[C@H](NC(=O)[C@@H](N)CCCCNC(=O)CC[C@H](NC(=O)CCCCCCCCCCCCCCCCCCC(=O)O)C(=O)O)C(=O)N[C@@H](CC(N)=O)C(=O)N[C@@H]([C@@H](C)O)C(=O)N[C@@H](C)C(=O)N[C@@H]([C@@H](C)O)C(=O)N1)[C@@H](C)O)C(=O)N1CCC[C@H]1C(=O)N[C@@H](CO)C(=O)N[C@@H](CO)C(=O)N[C@H](C(=O)N[C@@H](CC(N)=O)C(=O)N[C@H](C(=O)NCC(=O)N[C@@H](CO)C(=O)N[C@@H](CCCCN)C(=O)N[C@H](C(=O)N[C@@H](Cc1ccc(O)cc1)C(N)=O)[C@@H](C)O)C(C)C)[C@@H](C)O, Derivative of human amylin; also called compound 35) [N^ε1-[(4S)-4-carboxy-4-(19-carboxynonadecanoylamino)butanoyl]-[Arg17,Pro21,Pro27,Lys35]-h-amylin]
16.7 nM	17.3	16.7	1 nM	K([γGlu-γGlu-C20 diacid])CNTATCATQRLADFLRHSSNPFGAPLSSTNVGSDTY-NH2 (disulfide 2-7; N-terminus assumed; SMILES CC(C)C[C@H](NC(=O)[C@H](CCCNC(=N)N)NC(=O)[C@H](CCC(N)=O)NC(=O)[C@@H](NC(=O)[C@H](C)NC(=O)[C@@H]1CSSC[C@H](NC(=O)[C@@H](N)CCCCNC(=O)CC[C@H](NC(=O)CC[C@H](NC(=O)CCCCCCCCCCCCCCCCCCC(=O)O)C(=O)O)C(=O)O)C(=O)N[C@@H](CC(N)=O)C(=O)N[C@@H]([C@@H](C)O)C(=O)N[C@@H](C)C(=O)N[C@@H]([C@@H](C)O)C(=O)N1)[C@@H](C)O)C(=O)N[C@@H](C)C(=O)N[C@@H](CC(=O)O)C(=O)N[C@@H](Cc1ccccc1)C(=O)N[C@@H](CC(C)C)C(=O)N[C@@H](CCCNC(=N)N)C(=O)N[C@@H](Cc1c[nH]cn1)C(=O)N[C@@H](CO)C(=O)N[C@@H](CO)C(=O)N[C@@H](CC(N)=O)C(=O)N1CCC[C@H]1C(=O)N[C@@H](Cc1ccccc1)C(=O)NCC(=O)N[C@@H](C)C(=O)N1CCC[C@H]1C(=O)N[C@@H](CC(C)C)C(=O)N[C@@H](CO)C(=O)N[C@@H](CO)C(=O)N[C@H](C(=O)N[C@@H](CC(N)=O)C(=O)N[C@H](C(=O)NCC(=O)N[C@@H](CO)C(=O)N[C@@H](CC(=O)O)C(=O)N[C@H](C(=O)N[C@@H](Cc1ccc(O)cc1)C(N)=O)[C@@H](C)O)C(C)C)[C@@H](C)O, Derivative of human amylin; also called compound 3)
